What was measured:
[1] = target: T1, wild type soluble Fas ligand (WT-sFasL), long form, amino acids 103 to 281 (human, UniProt P48023 103-281); experiment: ELISA; direct binding: wells coated with recombinant human soluble Fas, 5 ug/ml; serial 3-fold dilutions of WT or mut-sFasL, 2 hours; bound sFasL detected with a polyclonal anti-human FasL antibody; conditions: both partners purified
T1 construct: human Fas ligand (FasL, CD178), soluble long form, amino acids 103 to 281 of the 281 amino acid protein; cloned in pSecTag/FRT/V5-His-TOPO with stop codons, so the V5-His tag is not expressed ('native form'); Secreted from the pSecTag vector; the oligomeric state was not measured here; also called wild type sFasL; long form of sFasL
T1 sequence (looked up): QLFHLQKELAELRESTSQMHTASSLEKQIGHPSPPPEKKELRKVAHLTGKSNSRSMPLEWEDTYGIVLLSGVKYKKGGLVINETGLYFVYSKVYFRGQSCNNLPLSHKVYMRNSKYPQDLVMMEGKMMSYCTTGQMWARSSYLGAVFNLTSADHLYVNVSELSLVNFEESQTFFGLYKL

[2] = target: T2, biotinylated wild type soluble Fas ligand (biotinylated WT-sFasL) (human, UniProt P48023 103-281, biotin (EZ-Link Sulfo-NHS-LC-Biotin), sites not stated); experiment: ELISA; competition: wells coated with recombinant human soluble Fas (250 ng/ml); biotinylated WT sFasL (70 ng/ml) mixed with serial 3-fold dilutions of WT or 8-site mutated sFasL, 2 hours; biotin detected with HRP-streptavidin; conditions: both partners purified
T2 construct: human Fas ligand (FasL, CD178), soluble long form, amino acids 103 to 281; the same protein as m1, biotinylated after purification; Same construct as m1, chemically biotinylated
T2 sequence (looked up): T1 sequence (looked up)

B1: recombinant human soluble Fas receptor (receptor, UniProt P25445 26-173, looked up)
chain: QVTDINSKGLELRKTVTTVETQNLEGLHHDGQFCHKPCPPGERKARDCTVNGDEPDCVPCQEGKEYTDKAHFSSKCRRCRLCDEGHGLEVEINCTRTQNTKCRCKPNFFCNSTVCEHCDPCTKCEHGIIKECTLTSNTKCKEEGSRSN
notes: human Fas (CD95), recombinant soluble receptor from PeproTech; No catalogue number is printed; also called recombinant human Fas; CD95; source: bought: PeproTech
B1: binds [1]; binds [2].
